Source: PMC9482650, “Quantitative fragmentomics allow affinity mapping of interactomes” (Nature Communications, 2022)

Tests used:
Test in all cases: holdup assay
Parameters in all cases: key: below the threshold = too weak to quantify, mostly under pKd 3.1 to 4
[1] = target: LDB3, O75112
[2] = target: LAP2, Q96RT1
[3] = target: T1, HTRA3, P83110
T1 sequence (P83110 354-453, limits assumed, looked up): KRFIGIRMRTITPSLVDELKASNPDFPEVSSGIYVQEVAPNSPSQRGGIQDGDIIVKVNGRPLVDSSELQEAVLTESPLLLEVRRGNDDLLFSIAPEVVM

[4] = target: Inadl_5, Q8NI35
[5] = target: FRMPD3, Q5JV73
[6] = target: T2, LIN7B, Q9HAP6
T2 sequence (Q9HAP6 88-185, limits assumed, looked up): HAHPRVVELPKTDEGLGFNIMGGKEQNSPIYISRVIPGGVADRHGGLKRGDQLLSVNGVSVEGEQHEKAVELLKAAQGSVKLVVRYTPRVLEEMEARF

[7] = target: DLG4_2, P78352
[8] = target: ARHGEF12, Q9NZN5-2
[9] = target: GRIP2_7, Q9C0E4
[10] = target: DLG1_1, Q12959
[11] = target: IL16_4, Q14005
[12] = target: T3, LIN7C, Q9NUP9
T3 sequence (Q9NUP9 88-185, limits assumed, looked up): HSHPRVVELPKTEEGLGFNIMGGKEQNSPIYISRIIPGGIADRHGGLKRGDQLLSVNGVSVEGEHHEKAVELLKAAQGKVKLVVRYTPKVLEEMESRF

[13] = target: DLG2_2, Q15700
[14] = target: LNX1_3, Q8TBB1
[15] = target: MAGI2_4, Q86UL8
[16] = target: AHNAK1, Q09666
[17] = target: T4, APBA2_2, Q99767
T4 sequence (Q99767 654-744, limits assumed, looked up): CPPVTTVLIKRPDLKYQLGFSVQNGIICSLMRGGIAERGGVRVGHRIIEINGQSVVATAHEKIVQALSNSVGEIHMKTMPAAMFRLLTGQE

[18] = target: MAGI2_3, Q86UL8
[19] = target: T5, PDZD7_3, Q9H5P4
T5 sequence (Q9H5P4 857-944, limits assumed, looked up): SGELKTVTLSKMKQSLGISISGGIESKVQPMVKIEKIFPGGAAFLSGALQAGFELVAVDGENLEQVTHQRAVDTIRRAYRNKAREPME

[20] = target: PDLIM1, O00151
[21] = target: T6, GRIP1_4, Q9Y3R0
T6 sequence (Q9Y3R0 467-571, limits assumed, looked up): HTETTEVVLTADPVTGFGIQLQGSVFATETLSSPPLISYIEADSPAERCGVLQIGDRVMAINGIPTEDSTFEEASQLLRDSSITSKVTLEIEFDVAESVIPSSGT

[22] = target: Inadl_10, Q8NI35
[23] = target: T7, NHERF3_3, Q5T2W1
T7 sequence (Q5T2W1 238-333, limits assumed, looked up): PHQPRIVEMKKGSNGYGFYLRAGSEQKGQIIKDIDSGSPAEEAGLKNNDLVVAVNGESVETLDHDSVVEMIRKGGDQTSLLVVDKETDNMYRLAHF

[24] = target: IL16_1, Q14005
[25] = target: DLG4_3, P78352
[26] = target: T8, MPDZ_5, O75970
T8 sequence (O75970 695-796, limits assumed, looked up): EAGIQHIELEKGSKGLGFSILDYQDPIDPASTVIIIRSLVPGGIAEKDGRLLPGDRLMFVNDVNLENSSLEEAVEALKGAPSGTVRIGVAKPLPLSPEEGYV

[27] = target: HTRA1, Q92743
[28] = target: T9, APBA3_1, O96018
T9 sequence (O96018 389-490, limits assumed, looked up): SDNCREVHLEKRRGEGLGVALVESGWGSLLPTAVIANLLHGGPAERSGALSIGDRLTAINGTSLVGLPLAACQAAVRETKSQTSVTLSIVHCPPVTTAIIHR

[29] = target: PDZRN4_1, Q6ZMN7
[30] = plain residues with an end cap or a label only (N-terminal biotin on a linker: ado-ado)
[31] = modified: acetyl on K at position -1 from the C-terminal residue

Inadl_5, Q8NI35, sequence (Q8NI35 673-780): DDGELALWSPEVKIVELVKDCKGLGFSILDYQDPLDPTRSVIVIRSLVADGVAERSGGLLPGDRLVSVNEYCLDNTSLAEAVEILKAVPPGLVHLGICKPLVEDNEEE
IL16_4, Q14005, sequence (Q14005 1229-1329): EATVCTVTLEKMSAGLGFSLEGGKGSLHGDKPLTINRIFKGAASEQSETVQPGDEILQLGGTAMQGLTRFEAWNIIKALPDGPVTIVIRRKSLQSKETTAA
DLG4_2, P78352, sequence (P78352 155-259): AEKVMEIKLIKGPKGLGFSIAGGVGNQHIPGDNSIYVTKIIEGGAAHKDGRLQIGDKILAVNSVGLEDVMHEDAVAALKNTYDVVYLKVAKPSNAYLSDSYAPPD
DLG4_3, P78352, sequence (P78352 306-403): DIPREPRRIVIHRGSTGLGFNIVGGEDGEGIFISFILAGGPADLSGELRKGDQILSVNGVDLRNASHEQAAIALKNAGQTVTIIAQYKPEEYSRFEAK
MAGI2_3, Q86UL8, sequence (Q86UL8 600-682): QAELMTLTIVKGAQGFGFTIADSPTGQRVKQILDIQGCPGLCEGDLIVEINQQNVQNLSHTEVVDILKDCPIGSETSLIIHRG
MAGI2_4, Q86UL8, sequence (Q86UL8 772-865): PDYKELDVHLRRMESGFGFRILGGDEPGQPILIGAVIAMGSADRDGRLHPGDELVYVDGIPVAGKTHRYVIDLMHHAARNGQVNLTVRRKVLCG
LNX1_3, Q8TBB1, sequence (Q8TBB1 500-596): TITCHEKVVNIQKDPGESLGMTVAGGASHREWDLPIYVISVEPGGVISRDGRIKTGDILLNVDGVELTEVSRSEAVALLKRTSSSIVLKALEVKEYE
Inadl_10, Q8NI35, sequence (Q8NI35 1673-1763): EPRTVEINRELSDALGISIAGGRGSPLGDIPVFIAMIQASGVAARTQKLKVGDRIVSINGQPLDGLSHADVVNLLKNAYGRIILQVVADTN
PDLIM1, O00151, sequence (O00151 1-87): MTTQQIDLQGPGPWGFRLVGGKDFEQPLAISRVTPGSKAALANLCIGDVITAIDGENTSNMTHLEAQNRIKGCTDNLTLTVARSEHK
IL16_1, Q14005, sequence (Q14005 210-306): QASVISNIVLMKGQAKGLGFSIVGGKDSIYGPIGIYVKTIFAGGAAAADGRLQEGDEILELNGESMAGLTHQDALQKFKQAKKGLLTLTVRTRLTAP
HTRA1, Q92743, sequence (Q92743 360-477): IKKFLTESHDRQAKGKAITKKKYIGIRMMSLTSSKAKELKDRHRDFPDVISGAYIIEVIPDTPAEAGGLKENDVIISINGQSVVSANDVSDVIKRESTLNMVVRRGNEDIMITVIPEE
PDZRN4_1, Q6ZMN7, sequence (Q6ZMN7 213-318): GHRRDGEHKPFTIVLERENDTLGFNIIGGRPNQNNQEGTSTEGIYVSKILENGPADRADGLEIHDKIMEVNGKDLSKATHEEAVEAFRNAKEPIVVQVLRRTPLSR
FRMPD3, Q5JV73, sequence (Q5JV73 12-100): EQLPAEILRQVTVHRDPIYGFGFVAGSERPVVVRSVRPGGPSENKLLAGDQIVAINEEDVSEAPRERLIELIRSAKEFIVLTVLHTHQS
AHNAK1, Q09666, sequence (Q09666 4-100): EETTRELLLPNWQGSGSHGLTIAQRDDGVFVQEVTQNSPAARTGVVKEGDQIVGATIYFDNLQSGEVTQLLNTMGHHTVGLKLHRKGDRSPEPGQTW
ARHGEF12, Q9NZN5-2, sequence (Q9NZN5 other isoform, or with tags, fused parts or gaps): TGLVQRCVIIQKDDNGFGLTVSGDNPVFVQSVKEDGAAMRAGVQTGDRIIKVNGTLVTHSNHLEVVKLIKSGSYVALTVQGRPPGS
DLG2_2, Q15700, sequence (Q15700 189-283): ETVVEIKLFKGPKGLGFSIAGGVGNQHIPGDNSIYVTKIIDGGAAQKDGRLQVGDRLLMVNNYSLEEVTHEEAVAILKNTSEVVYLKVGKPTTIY
LDB3, O75112, sequence (O75112 1-94): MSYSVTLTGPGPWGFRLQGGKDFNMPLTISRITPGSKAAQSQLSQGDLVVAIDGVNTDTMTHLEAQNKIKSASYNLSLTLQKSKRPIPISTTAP
GRIP2_7, Q9C0E4, sequence (Q9C0E4 934-1023): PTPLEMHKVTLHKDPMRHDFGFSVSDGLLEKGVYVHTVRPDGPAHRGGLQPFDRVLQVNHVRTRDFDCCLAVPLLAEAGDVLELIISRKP
LAP2, Q96RT1, sequence (Q96RT1 other isoform, or with tags, fused parts or gaps): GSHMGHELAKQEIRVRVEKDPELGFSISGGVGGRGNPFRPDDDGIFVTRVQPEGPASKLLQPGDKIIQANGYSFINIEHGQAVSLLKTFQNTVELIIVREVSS

PDGEMMEVLI [AMOTL1, Q8IY63]
pKd [1, 30]: below the threshold
pKd [2, 30]: below the threshold
pKd [3, 30]: below the threshold
pKd [4, 30]: below the threshold
pKd [5, 30]: below the threshold
pKd [6, 30]: 3.72
pKd [7, 30]: below the threshold
pKd [8, 30]: below the threshold
pKd [9, 30]: below the threshold
pKd [10, 30]: below the threshold
pKd [11, 30]: below the threshold
pKd [12, 30]: below the threshold
pKd [13, 30]: below the threshold
pKd [14, 30]: below the threshold
pKd [15, 30]: below the threshold
pKd [16, 30]: below the threshold
pKd [17, 30]: below the threshold
pKd [18, 30]: below the threshold
pKd [19, 30]: below the threshold
pKd [20, 30]: below the threshold
pKd [21, 30]: below the threshold
pKd [22, 30]: below the threshold
pKd [23, 30]: below the threshold
pKd [24, 30]: below the threshold
pKd [25, 30]: below the threshold
pKd [26, 30]: below the threshold
pKd [27, 30]: 5.05
pKd [28, 30]: below the threshold
pKd [29, 30]: below the threshold

DEDQHTQITKV [PTEN_Ac, P60484]
pKd [1, 31]: below the threshold
pKd [2, 31]: 3.93
pKd [3, 31]: below the threshold
pKd [4, 31]: below the threshold
pKd [5, 31]: below the threshold
pKd [6, 31]: 3.57
pKd [7, 31]: 4.58
pKd [8, 31]: 4.47
pKd [9, 31]: below the threshold
pKd [10, 31]: 4.15
pKd [11, 31]: below the threshold
pKd [12, 31]: below the threshold
pKd [13, 31]: 4.37
pKd [14, 31]: below the threshold
pKd [15, 31]: 3.87
pKd [16, 31]: below the threshold
pKd [17, 31]: below the threshold
pKd [18, 31]: 4.85
pKd [19, 31]: 5.82
pKd [20, 31]: below the threshold
pKd [21, 31]: below the threshold
pKd [22, 31]: below the threshold
pKd [23, 31]: below the threshold
pKd [24, 31]: 3.84
pKd [25, 31]: below the threshold
pKd [26, 31]: below the threshold
pKd [27, 31]: 5.03
pKd [28, 31]: below the threshold
pKd [29, 31]: below the threshold
